Results from the RNAGym collection of RNA variant scans (doi:10.1073/pnas.2313332121).
Variants at the floor of the assay were thinned out.

B1: TPR 5TU (parent)
chain: GGAUCUUCUCGAUCUAACAAAAAAGACAAAUCUGCCACAAAGCUUGAGAGCAUCUUCGGAUGCAGAGGCGGCAGCCUUCGGUGGCGCGAUAGCGCCAACGUUCUCAACUAUGACACGCAAAACGCGUGCUCCGUUGAAUGGAGUUUAUCAUG

Variants of: B1
Assay: polymerase ribozyme fitness, log enrichment relative to wild type (log ratio); higher = more active; in vitro selection for triplet polymerase activity
In short: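 Each subunit of a heterodimeric triplet polymerase ribozyme was represented by a PCR-built, transcribed mutant library that underwent triplicate single-round in vitro selection with frozen incubation at −7 °C. Extended constructs were recovered by gel excision, streptavidin-bead capture and RT-PCR, and Illumina sequencing of input and output libraries kept genotypes with ≥10 input reads and ≥1 read per output. Fitness is the logarithm of genotype enrichment relative to wild-type enrichment, from inverse-variance-weighted replicate averages, with a logarithm base of 2.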

| Variant | polymerase ribozyme fitness (log ratio) |
| --- | --- |
| C43U G50C C75G C79G G84A | ≤ -4.2 |
| U33G G80C G92A C131A U151A | -4.15 |
| A3C A23U U44A U45C C95U C105G A106C C123U A137G | ≤ -4.2 |
| C27U A66G G88A G136A | ≤ -4.2 |
| G58A A121C | 0.557 |
| U4G A20C C43U U55A G59U A60G C87A A121G G141C | ≤ -4.2 |
| U45A G92U | -2.75 |
| A37C A49C A91G G94A C96U A106G | ≤ -4.2 |
| A19C A22U G42U C75G C76A G94A A110U G133U G143U U146G | ≤ -4.2 |
| C57U A97G | -0.11 |
| A24C C32G C43G C87G U104G A115C | ≤ -4.2 |
| G48C A49G A113G | ≤ -4.2 |
| C93G A97U A121G | ≤ -4.2 |
| A3C C8U C18U A49G C87A | ≤ -4.2 |
| C43G G83C | ≤ -4.2 |
| C32A A40C G84A | ≤ -4.2 |
| U9A A21U U55A C85G G112C U145A | ≤ -4.2 |
| A17G A52U G83A C95U | -3.91 |
| U9G G86A A138G | ≤ -4.2 |
| C27A U61A G86A | ≤ -4.2 |
| A49G G50C C95U A98G U145G | -2.77 |
| G84U G126A | -1.87 |
| G80U C103G G152A | ≤ -4.2 |
| A73U G83C G143C | ≤ -4.2 |

| Variant | polymerase ribozyme fitness (log ratio) |
| --- | --- |
| C18A C38U C51U C96G C116G U148A | ≤ -4.2 |
| U9A G25U C36U G50C G86A | ≤ -4.2 |
| A21G A41G C93A C132A | -3.75 |
| A41C C57A C87U C114G | -3.91 |
| G84A U134G | -2.31 |
| U9G C27G U31G U61G C75G G94A C105U | ≤ -4.2 |
| A17U C18G A41G A89C G126A C132U | -3.84 |
| C14A C35U C57U G59C U134A | -4.18 |
| G50C A52C G86U C87A | ≤ -4.2 |
| C63U C96U A150G | -1.22 |
| C14A G62U G94A | -2.9 |
| A22G G88A C96U | ≤ -4.2 |
| U56A G58U A97C C99A | -2.52 |
| A24G G34A G58C C87A C99U | ≤ -4.2 |
| A17G C96A A97G U101C U148C | -3.67 |
| A3U C14G A30U U55G C95U | ≤ -4.2 |
| C85G A106C G141C | -3.91 |
| G58A C85G C118A G126C | -3.62 |
| G25C A60G G86C C105U | -3.36 |
| A12C A22G C32G C51G A60U U77A G81C G128A U148C | ≤ -4.2 |
| A64U G92A G117C U145A | ≤ -4.2 |
| A16G U31G A49U | ≤ -4.2 |
| A29C U33G A40U G80U G94U U102C G143A U151A | -3.89 |
| U31A C85G C96G A142C | ≤ -4.2 |

| Variant | polymerase ribozyme fitness (log ratio) |
| --- | --- |
| U56C G59A G92U U135A | -2.19 |
| G81C G143C | -2.03 |
| A21C A24G C38U G83A C99U | ≤ -4.2 |
| A37C A49G C87U A115C | -3.32 |
| C35U G48A U78C C96G G117C | ≤ -4.2 |
| U45A A47C U61A G92A C114A C123G U146G | ≤ -4.2 |
| C43U C54A U55C C85U C99G A147G | ≤ -4.2 |
| A20U U61G C87U C95U | -3.33 |
| C5U A19G C57U G84U G117U A120U | -2.48 |
| U7C C10U U55A G62A G65C U78G C96A | ≤ -4.2 |
| A52C G84A G88C | -4.09 |
| U9G A47C C57A A66C C87A A89U A120U A121U C123A C125U U144A | ≤ -4.2 |
| C5A U44A A73U C79U C85U G126U | ≤ -4.2 |
| U9A C32A U55G G88U U109A | ≤ -4.2 |
| C51G A106G U144A | -3.29 |
| U15G A24C C35A A107U A147U | ≤ -4.2 |
| A30C G65A G67C G100A A119U | ≤ -4.2 |
| C85U C125G | -0.638 |
| G84A A150C | -3 |
| A28U G50A C85G | ≤ -4.2 |
| A3U A24G C32G | -4.15 |
| U9C A26G U55A A122U | ≤ -4.2 |
| G46C C54U G94A C99A A142U U151C | ≤ -4.2 |
| C76A C129G G136A | -3.95 |

| Variant | polymerase ribozyme fitness (log ratio) |
| --- | --- |
| C85G C149U | -2.46 |
| C43U U55G A60U U109A U145C U146C | ≤ -4.2 |
| U31G C54A C95A A142U | -3.34 |
| A26G A28G C87A C105G C108U C125A | ≤ -4.2 |
| C32A G50U U55A C85A | ≤ -4.2 |
| G59A C96A G117U | -0.271 |
| A21G C76A G86U C93G U101C A122G | -0.0234 |
| A21C U45G C54G G143C | ≤ -4.2 |
| G92U G112C | -2.95 |
| G50U G126A G141C | -4.02 |
| U6G A29G | -3.97 |
| A26U C35G C69A G92A C96A A97G A120C | ≤ -4.2 |
| A30G U45A A106C U135G | -3.85 |
| A3U G59U U82A C93A A142C | ≤ -4.2 |
| C14U U15C A23U A41U C85A | ≤ -4.2 |
| U55A A138G | -2.51 |
| G83C G92A | ≤ -4.2 |
| A12G C51U | 0.193 |
| C5A A19U G86C | -3.47 |
| C57U G83U A137G | -1.92 |
| C14A G86C | -3.85 |
| A21U A113U A137G U144A | -3.99 |
| A19C A22U C35A A106G | -3.28 |
| A47U C96A A97G A122C | -1.28 |

| Variant | polymerase ribozyme fitness (log ratio) |
| --- | --- |
| A30U C54G C95A A98U A122C G141C U144C | ≤ -4.2 |
| C5A U7G G88U C105G G136A A137U G152U | ≤ -4.2 |
| C93U G136C | -4.02 |
| A20G A47C G48C G50C U56C C87A C95G U139A G141A | -4.1 |
| U53G G94U A98C | -2.12 |
| G58U C85G | -1.61 |
| A16C G88A C116G | -4.19 |
| A73U G84A U144C | -1.83 |
| C93A G100C C118G A138G | ≤ -4.2 |
| A41G C75G G92C U146A | ≤ -4.2 |
| G59U U148C | -1.18 |
| G86U C118U | -1.69 |
| A52G U55A G92U | -0.803 |
| A3C A21C C35A C85U C125U | ≤ -4.2 |
| A60C C76U | -3.17 |
| U53A G58A G80A G81A C87U | -2.31 |
| A21C C85U A138U | ≤ -4.2 |
| A26U C51U C72U A73U C85A C99G G100C U111G | ≤ -4.2 |
| A29U C76G G84U C96A A122U U144A | ≤ -4.2 |
| U6A U55G | -0.118 |
| C8G A29C U55G A60G C85G A89G G140C | ≤ -4.2 |
| C87U A120G A121C A147U U148C | -2.38 |
| U6G A28U C72U C87A | ≤ -4.2 |
| A19G C93A G140A | ≤ -4.2 |

| Variant | polymerase ribozyme fitness (log ratio) |
| --- | --- |
| G84A A142C | -1.65 |
| A37G G42C G88U A115G | ≤ -4.2 |
| A29U C32U A122G | ≤ -4.2 |
| U4A C96A A98C A115U A142U G152C | ≤ -4.2 |
| A29U C32U G62A G67U C75G U82G A142U A150G | -3.64 |
| U61A C105U U134G U139G | -4.18 |
| A52G G58U C87U | -2 |
| U61A G84U C114U | -3.85 |
| A97U G117U | -1.25 |
| A22U G46A A115G | -1.54 |
| A26U A89G | -3.26 |
| U6A G11A A64C C72U C87U A120G C149A | ≤ -4.2 |
| G92U C96A G136C | -3.56 |
| A29U A60G C76A | ≤ -4.2 |
| U31C G58A G94U G143U | -2.9 |
| U15G C69A C96U | -1.09 |
| A39U G100A A110G A150U | ≤ -4.2 |
| A24G G80C G83C A115U U134A | ≤ -4.2 |
| A28C A30U A60C C75A C76U C93A C95G | ≤ -4.2 |
| U4G G88U | -3.2 |
| C5U U15G U33C | -4.17 |
| C96U U109C | -3.67 |
| G59C G94A U101G A113C | ≤ -4.2 |
| U13G A20U C57A C95A C96A U130C | ≤ -4.2 |

| Variant | polymerase ribozyme fitness (log ratio) |
| --- | --- |
| U55A G81C C118G G141A U146A | -2.94 |
| G50A U90C C96G A115U | ≤ -4.2 |
| A16U A17U A26U C27G A49U C54A A66U C85A C116G | -3.74 |
| U45G C93A C95U | -3.98 |
| U44A G80A A121U U144A | ≤ -4.2 |
| U45G U56A C69A C96A C131U G136U | -3.1 |
| U9A A91C C116G U148A | -3.93 |
| A26U C35U C87A G124C | ≤ -4.2 |
| C14U C54U C87A A89G C96U A121U A142C | ≤ -4.2 |
| A3C C43U A89U G92A C125G | ≤ -4.2 |
| A49C C95U C96G | -3.85 |
| C8U U13C A22G C93U G126A | -1.08 |
| U31G C99U C116U A137G | -1.84 |
| C10U C54A G88U A115G | ≤ -4.2 |
| U56G A73G C87A G94U C118U | ≤ -4.2 |
| C85G C96U | -2.26 |
| A40C A52G U82A G92U A106U | -3.38 |
| A30U A47C G50A C54G G92C C123G | ≤ -4.2 |
| A23U A26U A41U G50A G65C A91C C103G G128U | ≤ -4.2 |
| G58C G84A G112U | ≤ -4.2 |
| A29U U77A G80A G92A U148C | ≤ -4.2 |
| A41C C54U A110G | -2.74 |
| A89U A142C U146C A150U | -3.99 |
